Target: RelJ antitoxin (recombinant His-tagged) (M. tuberculosis) (UniProt P9WF24)
Test: native gel or EMSA

Sequence of UniProt P9WF24 (P9WF24 whole entry): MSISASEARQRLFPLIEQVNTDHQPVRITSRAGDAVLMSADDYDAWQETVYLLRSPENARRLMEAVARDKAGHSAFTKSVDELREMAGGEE

## RelK toxin (recombinant His-tagged, unphosphorylated) (from UniProt P9WF08 2-85) (natural protein)
  stoichiometry N (RelK per RelJ): 1

Source: PMC12239584
